Key:
[1] = target: T1, Human CLEC12A-His (recombinant, K244 WT) (human, UniProt Q5QGZ9 65-265); assay: SPR, two-state fit (kd1); fully purified protein after low pH hold
T1 construct: Made in house (Dragonfly Tx); also called hCLEC12A; hCLEC12A-His; not shown: His tag
T1 sequence: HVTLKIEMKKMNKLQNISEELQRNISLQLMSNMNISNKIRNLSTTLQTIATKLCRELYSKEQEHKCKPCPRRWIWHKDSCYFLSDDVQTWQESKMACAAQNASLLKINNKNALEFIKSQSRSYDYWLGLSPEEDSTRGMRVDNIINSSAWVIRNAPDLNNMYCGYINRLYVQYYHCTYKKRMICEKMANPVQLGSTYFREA

[2] = target: T2, mFc-hNKG2D (recombinant mFc-tagged human NKG2D dimer) (human, UniProt P26718 73-216); assay: SPR; control sample
T2 construct: extracellular domain; Made in house; not shown: mouse Fc tag
T2 sequence (looked up): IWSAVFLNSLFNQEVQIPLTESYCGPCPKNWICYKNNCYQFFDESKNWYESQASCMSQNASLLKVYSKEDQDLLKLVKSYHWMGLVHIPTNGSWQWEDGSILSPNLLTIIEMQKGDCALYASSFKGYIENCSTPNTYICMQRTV

[3] = target: T3, Human CD16a V158 (FcγRIIIa V158) (human, UniProt P08637 17-208, biotinylated); assay: SPR; control sample
T3 construct: Bought recombinant receptor; also called hCD16aV; hFcγRIIIa V158

[4] = target: T1, Human CLEC12A-His (recombinant, K244 WT); assay: SPR, two-state fit; after low pH hold

T3 sequence (P08637 17-208 F176V limits assumed): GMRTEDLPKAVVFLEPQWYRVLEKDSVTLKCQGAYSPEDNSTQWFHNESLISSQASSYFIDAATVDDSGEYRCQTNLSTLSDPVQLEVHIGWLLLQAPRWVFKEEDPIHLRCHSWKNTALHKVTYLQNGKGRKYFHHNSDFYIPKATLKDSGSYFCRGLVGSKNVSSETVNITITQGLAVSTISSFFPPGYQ

B1: AB0089 TriNKET (bispecific antibody, human IgG1, kappa)
chain: QLQLQESGPGLVKPSETLSLTCTVSGFSLTNYGLHWIRQPPGKCLEWIGVIWVGGATDYNPSLKSRVTISVDTSKNQFSLKLSSVQAADTAVYYCAKGDYGDTLDYWGQGTLVTVSSGGGGSGGGGSGGGGSGGGGSDIQMTQSPSSLSASVGDRVTITCHASQNINFWLSWYQQKPGKAPKLLIYEASNLHTGVPSRFSGSGSGTDFTLTISSLQPEDFATYYCQQSHSYPLTFGCGTKLEIKGSDKTHTCPPCPAPELLGGPSVFLFPPKPKDTLMISRTPEVTCVVVDVSHEDPEVKFNWYVDGVEVHNAKTKPREEQYNSTYRVVSVLTVLHQDWLNGKEYKCKVSNKALPAPIEKTISKAKGQPREPRVYTLPPCRDELTKNQVSLTCLVKGFYPSDIAVEWESNGQPENNYKTTPPVLVSDGSFTLYSKLTVDKSRWQQGNVFSCSVMHEALHNHYTQKSLSLSPG
heavy: EVQLVESGGGLVKPGGSLRLSCAASGFTFSSYSMNWVRQAPGKGLEWVSSISSSSSYIYYADSVKGRFTISRDNAKNSLYLQMNSLRAEDTAVYYCARGAPIGAAAGWFDPWGQGTLVTVSSASTKGPSVFPLAPSSKSTSGGTAALGCLVKDYFPEPVTVSWNSGALTSGVHTFPAVLQSSGLYSLSSVVTVPSSSLGTQTYICNVNHKPSNTKVDKKVEPKSCDKTHTCPPCPAPELLGGPSVFLFPPKPKDTLMISRTPEVTCVVVDVSHEDPEVKFNWYVDGVEVHNAKTKPREEQYNSTYRVVSVLTVLHQDWLNGKEYKCKVSNKALPAPIEKTISKAKGQPREPQVCTLPPSRDELTENQVSLTCLVKGFYPSDIAVEWESNGQPENNYKTTPPVLDSDGSFFLYSWLTVDKSRWQQGNVFSCSVMHEALHNHYTQKSLSLSPG
light: DIQMTQSPSSVSASVGDRVTITCRASQGISSWLAWYQQKPGKAPKLLIYAASSLQSGVPSRFSGSGSGTDFTLTISSLQPEDFATYYCQQGVSFPRTFGGGTKVEIKRTVAAPSVFIFPPSDEQLKSGTASVVCLLNNFYPREAKVQWKVDNALQSGNSQESVTEQDSKDSTYSLSSTLTLSKADYEKHKVYACEVTHQGLSSPVTKSFNRGEC
notes: F3' format heterodimer of three chains; human IgG1 Fc with EW-RVT and Y349C/S354C mutations; also called AB0089 Lot AB0089-002; CLEC12A TriNKET AB0089
Work on B1 yielded a koff [1] of 0.0276 s⁻¹, a Kd [2] of 797 nM and a koff [2] of 0.135 s⁻¹. The kon [2] was 169000 M⁻¹ s⁻¹, the Kd [3] was 322 nM and the koff [3] was 0.0278 s⁻¹. For the same binder, the kon [3] was 86400 M⁻¹ s⁻¹ and the Kd [4] was 0.7 nM.
